The values below come from US20070298448A1 (PROTEOSYS, published 2007).

Primed or numbered codes have the meaning given here. Ends that are not written are not given here. Bz′ = not defined here; OBz = not defined here

One assay has as its target T1, human angiotensin I (human, UniProt P01019 25-34).
T1 construct: also called calibration peptide; control peptide
As to the kind of experiment: peptide incubated with mutant on Ni-NTA-agarose beads, washed, acid eluate read by MALDI-TOF.

The next assay addresses T2, human angiotensin II (human, UniProt P01019 25-32).
T2 construct: also called calibration peptide; control peptide
The assay is described as above.

The target of assay [1] is T3, [Cys(Bz)^84, Glu(OBz)^85]-CD4(81-92) (UniProt P01730 106-117, reading uncertain).
T3 construct: range 81-92; Synthetic derivatized peptide
T3 peptide: TYIC(Bz′)E(OBz)VEDQKEE
Nature of the assay: mutant immobilized on Ni-NTA-agarose beads, peptide incubated, washed, eluted with 200 mM acetic acid, MALDI-TOF.

B1: 6xHis-Ser237Ala-V8Δ48 mutant (enzyme)
chain: MRGSHHHHHHGSVILPNNDRHQITDTTNGHYAPVTYIQVEAPTGTFIASGVVVGKDTLLTNKHVVDATHGDPHALKAFPSAINQDNYPNGGFTAEQITKYSGEGDLAIVKFSPNEQNKHIGEVVKPATMSNNAETQVNQNITVTGYPGDKPVATMWESKGKITYLKGEAMQYDLSTTGGNAGSPVFNEKNEVIGIHWGGVPNEFNGAVFINENVRNFLKQNIEDIHFANDDQKLN
notes: also called Ser237Ala-V8Δ48 protease; anhydro mutant of the V8 proteinase
As for B1, the binding result with human angiotensin I is “no binding”; with human angiotensin II it was “no binding”; in assay [1], “binds”.
